Test results reported in paper PMC10939073, “The major inducible small heat shock protein HSP20-3 in the tardigrade Ramazzottius varieornatus forms filament-like structures and is an active chaperone” (Cell Stress & Chaperones, 2023).

B1: human CRYAB (HSPB5) (natural protein, UniProt P02511 1-175, looked up)
chain: MDIAIHHPWIRRPFFPFHSPSRLFDQFFGEHLLESDLFPTSTSLSPFYLRPPSFLRAPSWFDTGLSEMRLEKDRFSVNLDVKHFSPEELKVKVLGDVIEVHGKHEERQDEHGFISREFHRKYRIPADVDPLTITSSLSSDGVLTVNGPRKQVSGPERTIPITREEKPAVTAAPKK
notes: human alpha-B crystallin CRYAB (HSPB5), recombinant; also called recombinant human CRYAB; source: E. coli, purified (ion exchange and size exclusion chromatography; as described previously)
B2: Ramazzottius varieornatus small heat shock protein HSP20-6 (natural protein, UniProt A0A1D1VFU2 1-195, looked up)
chain: MSRNLARLLPQITNMLDTPFRRAVTPFNRYRWPASSLGFFDREFERMSNMMDRMHNDLWHSSSLLENPQGSQRGKMNQDLFNIVEENGKKKMRIIFEAERCKPEDIEIKAKGNHLEIKARTEEKGEHFQSIQEYSQYLTLPEGVKAEELTCQFEGGMVTLEAPYTPPAIEAPKDIPVQKEPAEPPVKHNIPIKHE
notes: a stop codon precedes the vector's C-terminal hexa-histidine tag, so the protein is untagged; pET23b construct; also called RvY_08665; source: E. coli BL21 (pLysS), purified (Q-Sepharose ion exchange, Superose 6 size exclusion)
B3: Ramazzottius varieornatus small heat shock protein HSP20-3 (natural protein, UniProt A0A1D1UZ79 1-218, looked up)
chain: MSMQRYDDYNDYGNRQMRPHRGNYEMEPFFGGNLFGGIDHVMRSMTRDLARMEKHIFGSSDTPNIGSLINHNMAMVPNFIERDGQQLAQFQLDVRGFKPEDITIRTSENVMTVTARHEDKSDDHHAIREFRRMVTIPPGMQMEGMKSRLTPNGVLSIEAPFTPQANRQGDFYEIPIQHGSSSNRNSIQNSGQNSSQNTNQNTNQNTNQNTNQNTNQNK
notes: a stop codon precedes the vector's C-terminal hexa-histidine tag, so the protein is untagged; pET23b construct; also called full length HSP20–3; RvY_03967; source: E. coli BL21 (pLysS), purified (Q-Sepharose ion exchange, Superose 6 size exclusion)
B4: HSP20-3NCT, C-terminally truncated HSP20-3 (stop codon immediately after G191, repeated QNTN-motif removed) (domain or fragment, Ramazzottius varieornatus, UniProt A0A1D1UZ79 1-191, looked up)
chain: MSMQRYDDYNDYGNRQMRPHRGNYEMEPFFGGNLFGGIDHVMRSMTRDLARMEKHIFGSSDTPNIGSLINHNMAMVPNFIERDGQQLAQFQLDVRGFKPEDITIRTSENVMTVTARHEDKSDDHHAIREFRRMVTIPPGMQMEGMKSRLTPNGVLSIEAPFTPQANRQGDFYEIPIQHGSSSNRNSIQNSG
notes: untagged; same forward primer as HSP20-3; pET23b construct; also called CTD-truncated HSP20–3; source: E. coli BL21 (pLysS), purified (Q-Sepharose ion exchange, Superose 6 size exclusion)

Target: the molecule itself
Assay: SEC; Superose 6 10/300 column; eluted in 0.5 M NaH2PO4, 0.5 M Na2HPO4, 150 mM NaCl, 5 mM EDTA pH 8.0; calibrated with protein standards (670 kDa to 137 Da); self-association, oligomers

Protein | binding result
B1 | binds
B2 | binds
B3 | binds
B4 | binds
